Results published in article PMC3245871 (Journal of molecular biology, 2011).
Like-named read-outs stand apart in the source and are kept apart here.

Experiments:
mAb Z13e1 (human) = assay: ELISA
Z13-IL22-1 (human) = molecular target: T1, Z13-IL22-1 (human) (UniProt Q9GZX6); assay: ITC
T1 sequence: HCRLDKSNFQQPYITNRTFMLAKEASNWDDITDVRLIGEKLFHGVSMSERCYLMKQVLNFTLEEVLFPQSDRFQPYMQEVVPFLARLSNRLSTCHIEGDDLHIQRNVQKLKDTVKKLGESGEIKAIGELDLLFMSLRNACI

Z13-IL22-2 [1] = molecular target: T2, Z13-IL22-2 (human, UniProt Q9GZX6, SLADNNT (64–70) replaced by residues WNWDDIT); assay: ITC
Z13-IL22-2 [2] = molecular target: T2, Z13-IL22-2; assay: ITC; remark: listed apart in the source
Z13-IL22-2 [3] = molecular target: T2, Z13-IL22-2; assay: ITC; remark: listed apart in the source
Z13-IL22-2 [4] = molecular target: T2, Z13-IL22-2; assay: ITC; remark: listed apart in the source
WT IL-22 = WT IL-22 (human, UniProt Q9GZX6); assay: ELISA
Z13-IL22-2 [5] = molecular target: T2, Z13-IL22-2; assay: ELISA

B1: negative peptide control 94.1 (peptide)
peptide: NWFDITNWLWYIKKKK
Q: With B1 as the binder, how does the IC50 (mAb Z13e1 (human)) read?
A: The IC50 was over 5000 nM.

B2: Fab Z13e1 (Fab, V domains shown)
VH: EVQLLESGPGLLKPSETLSLTCTVSGGSMINYYWSWIRQPPGERPQWLGHIIYGGTTKYNPSLESRITISRDISKNQFSLRLNSVTAADTAIYYCARVAIGVSGFLNYYYYMDVWGSGTAVTVSS
VL: ELTQSPATLSLSPGERATLSCRASQSVGRNLGWYQQKPGQAPRLLIYDASNRATGIPARFSGSGSGTDFTLTISSLEPEDFAVYYCQARLLLPQTFGQGTKVEIK
Q: For B2, which Kd (Z13-IL22-1 (human)) is on record?
A: Its Kd is 15000 nM.

Q: What about the dH (Z13-IL22-1 (human)) of the same binder?
A: Its dH is -7.47 kcal/mol.

Q: And the dH (Z13-IL22-2 [1])?
A: Its dH is -7.46 kcal/mol.

Q: What about the dH (Z13-IL22-2 [2]) of the same binder?
A: Its dH is -10.8 kcal/mol.

Q: And the dH (Z13-IL22-2 [3])?
A: The dH was -13.9 kcal/mol.

Q: And the Kd (Z13-IL22-2 [4])?
A: The Kd was 73 nM.

B3: mAb Z13e1 (antibody, V domains shown)
VH: B2 VH
VL: B2 VL
Q: Does B3 bind (WT IL-22)?
A: Result: no binding

Q: What about the IC50 (Z13-IL22-2 [5]) of the same binder?
A: The IC50 was about 150 nM.
